Test results reported in article PMC4838378 (Nucleic Acids Research, 2016).
Where two headings read alike, the source gives them in different places.

Tests used:
cross-linking = target: the molecule itself; assay: cross-linking
[1] = target: T1, HpDnaB replicative helicase (Helicobacter pylori, UniProt O25916 1-488); assay: pull-down
T1 sequence: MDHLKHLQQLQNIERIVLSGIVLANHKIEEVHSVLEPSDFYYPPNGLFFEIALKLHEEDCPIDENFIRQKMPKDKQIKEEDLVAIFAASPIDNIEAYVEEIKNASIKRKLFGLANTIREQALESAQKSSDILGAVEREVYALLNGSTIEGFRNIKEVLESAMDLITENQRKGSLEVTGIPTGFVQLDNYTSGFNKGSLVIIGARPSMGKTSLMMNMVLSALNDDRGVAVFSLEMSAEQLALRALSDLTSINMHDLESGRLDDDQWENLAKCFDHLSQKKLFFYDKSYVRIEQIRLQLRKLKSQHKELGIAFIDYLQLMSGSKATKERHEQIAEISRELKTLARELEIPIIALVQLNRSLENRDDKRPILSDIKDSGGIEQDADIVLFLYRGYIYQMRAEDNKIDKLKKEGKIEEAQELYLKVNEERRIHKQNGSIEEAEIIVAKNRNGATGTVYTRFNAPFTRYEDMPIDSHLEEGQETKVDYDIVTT

[2] = target: T2, HpDnaB replicative helicase;Hp0897 (Helicobacter pylori;Helicobacter pylori …, UniProt O25916;O25557 1-488;1-208, |); assay: EMSA
T2 sequence 1: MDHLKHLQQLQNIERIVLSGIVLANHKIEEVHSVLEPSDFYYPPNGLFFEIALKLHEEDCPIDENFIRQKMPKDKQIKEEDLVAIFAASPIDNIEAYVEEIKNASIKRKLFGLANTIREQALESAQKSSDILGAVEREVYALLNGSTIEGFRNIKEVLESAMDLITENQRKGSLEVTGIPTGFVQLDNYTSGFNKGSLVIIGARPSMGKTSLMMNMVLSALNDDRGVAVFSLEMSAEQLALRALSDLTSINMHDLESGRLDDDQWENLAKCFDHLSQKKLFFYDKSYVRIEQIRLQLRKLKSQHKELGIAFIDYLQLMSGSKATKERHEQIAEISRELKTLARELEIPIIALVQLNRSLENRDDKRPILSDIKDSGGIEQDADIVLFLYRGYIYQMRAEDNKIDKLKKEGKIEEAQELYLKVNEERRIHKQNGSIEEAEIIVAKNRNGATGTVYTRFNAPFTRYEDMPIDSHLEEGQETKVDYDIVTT
T2 sequence 2: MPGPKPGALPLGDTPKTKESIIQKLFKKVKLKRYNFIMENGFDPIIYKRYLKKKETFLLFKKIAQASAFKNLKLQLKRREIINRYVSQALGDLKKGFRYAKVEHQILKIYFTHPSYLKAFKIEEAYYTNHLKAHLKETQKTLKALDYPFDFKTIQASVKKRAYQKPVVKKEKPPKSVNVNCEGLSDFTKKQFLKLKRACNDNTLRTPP

Hp0897 = target: T3, Hp0897 (Helicobacter pylori 26695, UniProt O25557 1-208); assay: EMSA
T3 sequence: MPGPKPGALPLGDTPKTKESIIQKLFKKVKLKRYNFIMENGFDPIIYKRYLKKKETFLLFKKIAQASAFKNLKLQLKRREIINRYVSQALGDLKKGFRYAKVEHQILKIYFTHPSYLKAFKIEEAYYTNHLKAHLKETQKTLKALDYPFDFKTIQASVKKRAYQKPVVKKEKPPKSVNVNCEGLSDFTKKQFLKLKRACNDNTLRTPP

[3] = target: T2, HpDnaB replicative helicase;Hp0897; assay: EMSA; remark: listed apart in the source

B1: His6-Hp0897 (natural protein, Helicobacter pylori strain 26695, UniProt O25557 1-208, looked up)
chain: MPGPKPGALPLGDTPKTKESIIQKLFKKVKLKRYNFIMENGFDPIIYKRYLKKKETFLLFKKIAQASAFKNLKLQLKRREIINRYVSQALGDLKKGFRYAKVEHQILKIYFTHPSYLKAFKIEEAYYTNHLKAHLKETQKTLKALDYPFDFKTIQASVKKRAYQKPVVKKEKPPKSVNVNCEGLSDFTKKQFLKLKRACNDNTLRTPP
stoichiometry N (cross-linking): 2

B2: biotinylated 70-nt ssDNA-1 (ssDNA)
DNA: CTGCCACACACCACCAAAGCTAACTGACAGCAGAATCCAGATGGATCATTTAAAGCATTTGCAACAATTG
modifications: 5' biotin
binding result [1]: binds

B3: 70-nt forked DNA (ssDNA-1/ssDNA-2) (dsDNA)
DNA 1: CTGCCACACACCACCAAAGCTAACTGACAGCAGAATCCAGATGGATCATTTAAAGCATTTGCAACAATTG
DNA 2: CAATTGTTGCAAATGCTTTAAATGATCCATGACCTAAGACGACAGTCAATCGAACCACCACACACCGTC
binding result [2]: binds

B4: 70NZ ssDNA-1 (ssDNA)
DNA: CTGCCACACACCACCAAAGCTAACTGACAGCAGAATCCAGATGGATCATTTAAAGCATTTGCAACAATTG
binding result (Hp0897): binds | binding result [3]: binds
